In patent US20030113292A1, “Methods of treating viral diseases with il-18 and il-18 combinations” (priority 2000, published 2003):

Experiments:
Chimpanzee PBMCs = experiment: Mediator induction in chimpanzee PBMCs (ELISA of supernatants); format: cell-based
Description: Chimpanzee or human PBMCs were isolated and treated with either control media, human IL-18 at 100 ng/ml, or IL-18 (100 ng/ml) in combination with IL-2 at 3 ng/ml. Supernatants were frozen following incubation for 24, 48, 72, or 96 hours. Mediator levels were analyzed by ELISA. […] Moreover there is synergy between IL-2 and IL-18 at inducing GM-CSF, IL-8, Neopterin, and IFN-gamma (FIGS. 9 and 10). These observations were confirmed in multiple chimp and human donors.
The highest protein levels were detected in samples obtained 96 hours post-treatment, with the exception of IFN-gamma that reached a maximum level at 24 hours.
In this study, treatment with IL-2 alone was used as control.

[1] = tested on: GM-CSF, IFN-gamma, and TNF mRNA; experiment: Cytokine mRNA induction in spleens of uninfected mice (quantitative real-time PCR); format: in vivo, Female Balb/C mice
Hepatitis B Virus (HBV) = experiment: HBV transgenic mice, liver HBV DNA by Southern blot; format: in vivo; settings: Day 3
Description: HBV transgenic mice (Guidotti et. al, 1995. J. Virol 69:6158-6169) were treated with three daily subcutaneous injections (Days 0, 1 and 2) of 4 different doses (100, 10, 1 and 0.1 microgram) of recombinant murine IL-18, with analysis of the liver for HBV DNA on Day 3 by Southern blot.

TNF-α, IFN-γ, and GM-CSF = experiment: Cytokine protein induction in uninfected mice (ELISA of sera and spleen homogenates); format: in vivo, Female Balb/C mice
HSV-1 (SC-16) = experiment: Lethal systemic HSV infection model; format: in vivo, mice
Description: Several studies evaluated the effect of murine IL-18 in a lethal systemic HSV infection model. Murine IL-18 was administered IP at −2 hours, 24 hours, and 48 hours following IP infection with HSV-1 (SC-16). IL-18 treatment at 10-ug/mouse lead to 40% survival in all studies, relative to no survival of vehicle treated animals (FIG. 5). […] In a single study, two daily doses of IL-18 at 100 ug/mouse lead to 70% survival (not shown).

[2] = post-treatment, IL-18 100 ng/ml

Molecule | IL-8 induction (Chimpanzee PBMCs; IL-18 100 ng/ml, FIG. 9(a), donor species of FIG. 9 not given) [fold] | Neopterin induction (Chimpanzee PBMCs; IL-18 100 ng/ml, FIG. 9(b), donor species of FIG. 9 not given) [fold] | GM-CSF induction (Chimpanzee PBMCs; IL-18 100 ng/ml, FIG. 9(c), donor species of FIG. 9 not given) [fold] | IFN-gamma induction (Chimpanzee PBMCs; IL-18 100 ng/ml, FIG. 9(d), donor species of FIG. 9 not given) [fold] | inducing cytokine expression in chimp PBMCs (Chimpanzee PBMCs; human IL-18 100 ng/ml, 24-96 hours) | time of highest protein levels (IL-8, Neopterin, GM-CSF) (Chimpanzee PBMCs; [2]) [h] | time of maximum IFN-gamma level (Chimpanzee PBMCs; [2]) [h] | IFN γ mRNA induction over vehicle ([1]; 2.5-6 hours post injection, real-time PCR, spleen) | TNF mRNA induction ([1]; quantitative real-time PCR) | GM-CSF mRNA induction relative to vehicle control ([1]; real-time PCR, data not shown) | reduction of liver HBV DNA at lowest dose (Hepatitis B Virus (HBV); 0.1 micrograms sc Days 0, 1, 2) | reduction of liver HBV DNA at higher doses (Hepatitis B Virus (HBV); 1, 10, 100 microgram sc Days 0, 1, 2) | virus replication (levels of viral DNA in liver) (Hepatitis B Virus (HBV); three daily sc injections, 100, 10, 1 and 0.1 microgram) | induction of GM-CSF protein (TNF-α, IFN-γ, and GM-CSF; IP 10 or 100 ug) | IFN levels in sera and spleens (TNF-α, IFN-γ, and GM-CSF; IP 10 or 100 ug murine IL-18, by 2.5 hours post-treatment) [ng/mL] | induction of TNF-α protein (TNF-α, IFN-γ, and GM-CSF; IP 10 or 100 ug, called minimal induction) [pg/mL] | survival (HSV-1 (SC-16); 10-ug/mouse IP at -2, 24 and 48 hours, vehicle: no survival) [%] | time to death (HSV-1 (SC-16); all studies) | survival (HSV-1 (SC-16); two daily doses at 100 ug/mouse, single study, not shown) [%]
human IL-18: human IL-18, amino acid sequence SEQ ID NO:1; 157 amino acid cytokine, interferon-γ-inducing factor | 14 | 7 | 100 | 8 | active | 96 | 24 |  |  |  |  |  |  |  |  |  |  |  | 
murine IL-18: murine IL-18, amino acid sequence SEQ ID NO:2; interferon-γ-inducing factor cytokine (protein, listed as Mus musculus) NFGRLHCTTAVIRNINDQVLFVDKRQPVFEDMTDIDQSASEPQTRLIIYMYKDSEVRGLAVTLSVKDSKMSTLSCKNKIISFEEMDPPENIDDIQSDLIFFQKRVPGHNKMEFESSLYEGHFLACQKEDDAFKLILKKKDENGDKSVMFTLTNLHQS |  |  |  |  |  |  |  | up to 20 fold | observed | 6-10 fold | some reduction | greater reductions | dose-dependent reduction | no induction | 2 | 100 | 40 | delay in time to death | 70
